The text below walks through data of patent US20240317847A1 (Bayer, published 2024).

Numbering of substitutions follows the chain as printed.

Test [1] addresses T1, cynomolgus IL-11 (cynomolgus, UniProt P20808 22-199).
T1 sequence: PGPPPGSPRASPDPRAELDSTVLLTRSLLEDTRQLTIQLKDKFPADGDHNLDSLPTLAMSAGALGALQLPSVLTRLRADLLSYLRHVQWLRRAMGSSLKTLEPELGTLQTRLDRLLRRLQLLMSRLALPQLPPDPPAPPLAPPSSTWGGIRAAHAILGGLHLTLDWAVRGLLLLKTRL
Kind of test: cell-based or functional assay.

Test [2] addresses T2, human IL-11 (human, UniProt P20809 22-199).
T2 sequence: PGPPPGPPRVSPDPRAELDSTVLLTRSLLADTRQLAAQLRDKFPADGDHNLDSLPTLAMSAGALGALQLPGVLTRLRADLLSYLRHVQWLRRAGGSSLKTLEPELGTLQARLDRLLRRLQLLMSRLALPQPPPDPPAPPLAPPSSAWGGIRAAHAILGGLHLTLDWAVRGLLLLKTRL
Kind of test: cell-based or functional assay.

Test [3] deals with T3, murine IL-11 (mouse, UniProt P47873 22-199).
T3 sequence: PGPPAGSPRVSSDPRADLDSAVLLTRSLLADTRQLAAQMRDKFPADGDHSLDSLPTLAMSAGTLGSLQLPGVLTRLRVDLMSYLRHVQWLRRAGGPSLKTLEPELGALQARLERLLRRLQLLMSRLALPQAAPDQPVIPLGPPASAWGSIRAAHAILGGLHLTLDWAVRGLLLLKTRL
In words: cell-based or functional assay.

Test [4] addresses T4, rat IL-11 (rat, UniProt Q99MF5 22-199).
T4 sequence: T3 sequence with S50N, L84F, G94A, V137A, I138V
Kind of test: cell-based or functional assay.

For test [5], the target named is T1, cynomolgus IL-11. Kind of test: SPR 37 C, antibody captured, IL-11 as analyte.
Test [6] deals with T2, human IL-11. Kind of test: SPR 37 C, antibody captured, IL-11 as analyte.
For test [7], the target named is T3, murine IL-11. Kind of test: SPR 37 C, antibody captured, IL-11 as analyte.
Test [8] concerns the target T4, rat IL-11. Kind of test: SPR 37 C, antibody captured, IL-11 as analyte.
Test [9] deals with T2, human IL-11. Kind of test: Di-complex ELISA, competitor murine IL11RA-Fc on coated IL-11. For orientation: In an ELISA, binding on a coated surface is turned into a signal by an enzyme label.
Test [10] deals with T3, murine IL-11. Described as above.
Test [11] deals with T5, murine IL-11 (mouse, UniProt P47873 22-199).
T5 construct: Invigate recombinant protein; biotinylated when immobilized in the Di-complex ELISA; also called mIL11; mIL-11
T5 sequence: T3 sequence
Kind of test: Tri-complex ELISA, mIL-11 + mIL-11Ra-Fc + mgp130-Fc, inhibition of complex formation. As for the experimental part: (§1) In the Tri-complex ELISA format IL-11 antibodies are tested for their ability to inhibit the formation of a complex consisting of murine or human gp130-Fc fusion protein, with murine or human IL-11, and a murine IL11RA-Fc fusion protein. The assay format was adapted according to FIG. 18 (a, b), depending on whether murine or human IL-11 IgG antibodies were tested.
(§2) Bispecific antibodies were subjected to the experimental assay procedure described in Example 19 and IC50 [M], respectively efficacy (%) were calculated accordingly.

For test [12], the target named is T5, murine IL-11. In words: Di-complex ELISA, murine IL11RA-Fc binding to immobilized mIL-11, competition. How it is done:
In the Di-complex ELISA format anti IL-11 antibodies are tested for the ability to interfere with the formation of complexes consisting of immobilized murine IL-11 (Invigate, e.g., lot #C210819-09) or human IL-11 (Invigate, e.g., lot #C121021-19), and murine IL11RA-Fc fusion proteins or canine IL11RA-human-Fc fusion protein (FIG. 17a, b).
Bispecific antibodies were subjected to the experimental assay procedure described in Example 18 and IC50 [M], respectively efficacy (%) were calculated accordingly.

For test [13], the target named is T6, human IL-11 (human, UniProt P20809 22-199).
T6 construct: Invigate recombinant protein; biotinylated when immobilized in the Di-complex ELISA; also called hIL11; hIL-11
T6 sequence: T2 sequence
In words: Tri-complex ELISA, hIL-11 + mIL-11Ra-Fc + hgp130-Fc, inhibition of complex formation. How it is done: as §1, §2

The target of test [14] is T7, cynomolgus IL-11 (cynomolgus, UniProt P20808 22-199).
T7 construct: Invigate recombinant protein; also called cIL11; Macaca IL-11
T7 sequence: T1 sequence
Kind of test: SPR (Biacore), 25 C, antibody captured via anti-Fc, IL-11 as analyte. How it is done:
(§3) To assess the binding kinetics and affinity of anti-IL-11 bispecific antibodies as well as their species cross-reactivity profile, binding assays were conducted using surface plasmon resonance (SPR). […] Antibodies were captured either via anti-human Fc IgGs (“Human antibody capture kit”, Order No. BR100839, Cytiva) or via anti-mouse Fc IgGs (“Mouse antibody capture kit, Order No. BR100383, Cytiva) covalently amine coupled to a Series S CM5 sensor chip (Cytiva) depending on the isotype. The amine coupling was carried out according to the manufacturer's instructions using 1-ethyl-3-(3-dimethylaminopropyl) carbodiimide hydrochloride (EDC), N-hydroxysuccinimide (NHS) and ethanolamine HCl, pH 8.5 (“Amine Coupling Kit” BR-1000-50, Cytiva.). Human, mouse, cynomolgus or rat IL-11 was used as analyte at several dilutions within the concentration range from 0.05-200 nM. For binding assays with only one concentration 200 nM IL-11 was used. The sensor surface was regenerated with glycine pH 1.7 after each antigen injection. Obtained sensorgrams were double referenced (subtraction of reference flow cell signal and buffer injection) and were fitted to a 1:1 Langmuir binding model to derive kinetic data using the Biacore T200 Evaluation software or the Biacore Insight software.
(§4) If no value is reported, there was either no binding or very low binding and multiphasic binding behavior.
In general terms: Surface plasmon resonance follows binding to a sensor surface in real time, without labels.

Test [15] concerns the target T5, murine IL-11. Described as above. How it is done:
as §3, §4

For test [16], the target named is T8, rat IL-11 (rat, UniProt Q99MF5 22-199).
T8 construct: Invigate recombinant protein; also called rIL11
T8 sequence: T3 sequence with S50N, L84F, G94A, V137A, I138V
The test is described as above. How it is done:
as §3, §4

Test [17] has as its target T6, human IL-11. The description is as above. How it is done: as §3, §4
For a further test, the target named is T9, human IL2Ra (human, UniProt P01589 22-240, limits assumed).
T9 construct: coated on the ELISA plate; also called IL-2 receptor alpha
T9 sequence (looked up): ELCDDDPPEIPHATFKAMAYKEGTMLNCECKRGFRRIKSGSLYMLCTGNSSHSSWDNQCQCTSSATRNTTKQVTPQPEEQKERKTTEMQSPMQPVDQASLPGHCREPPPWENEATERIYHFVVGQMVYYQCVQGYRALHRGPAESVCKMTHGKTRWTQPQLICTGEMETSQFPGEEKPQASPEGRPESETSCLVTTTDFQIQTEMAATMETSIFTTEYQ
Kind of test: ELISA on coated IL2Ra, signal ratio to isotype control at 1E-07 M antibody. As for the experimental part:
IL2RA (Peprotech, Germany, #200-02RC) was coated at 1 or 0 μg/ml (buffer only control) in 30 μl coating buffer (Candor, #113500) per well on a 384 well microtiter plate (Maxisorb, Nunc, #460518) over night at 4-8° C. After two washes with 50 μl/well washing buffer (PBS+0.05% Tween, pH 7.4), the plates were incubated for two hours at room temperature with 50 μl/well SmartBlock (Candor, #113500). After blocking, the plates were washed three times with washing buffer. Then, a dilution series of the respective antibody (1E-7 [M] down to 2E-13 [M]) in PBS+0.05% Tween, 10% SmartBlock were added in 30 μl to the microtiter plate and incubated for 90 min at room temperature. After three additional washes, 30 μl anti mouse IgG HRP-conjugated antibody (Biotechne, HAF007), diluted 1:1000 in PBS+0.05% Tween (pH 7.4), were added per well and incubated for one hour. After three additional washes, a mixture of Amplex red (Invitrogen, #12222, 10 mM stock solution in DMSO) 1:1000 diluted in PBS and H2O2 (30%, Merck, #107209)) diluted 1:10000 in PBS were added as substrate with 30 μl per well and incubated for 20 min in the dark. Relative fluorescence was measured with a microtiter plate reader at 535/590 nm.
Bispecific antibodies were subjected to the experimental assay procedure described in Example 20. Ratios of the signals generated at an antibody concentration of 1E-07 [M] by the respective bispecific antibody versus those of an isotype control antibody were calculated and are shown in Table E29. The bispecific antibodies show no binding to IL-2 Ra.

The target of test [18] is T5, murine IL-11. In words: cell-based or functional assay. This is another data set of the same source.
Test [19] has as its target T6, human IL-11. Kind of test: cell-based or functional assay. This is another data set of the same source.

B1: TPP-23552 (antibody, human IgG1, kappa)
heavy: not shown
light: DIVLTQSPASLALSPGERATLSCRASKSVSTSGYSYIHWYQQKPGQPPRLLIYLASNLDSGVPARFSGSGSGTDFTLNIHPLEEEDFATYYCQHSRDLPPTFGQGTKLEIKRTVAAPSVFIFPPSDEQLKSGTASVVCLLNNFYPREAKVQWKVDNALQSGNSQESVTEQDSKDSTYSLSSTLTLSKADYEKHKVYACEVTHQGLSSPVTKSFNRGEC
notes: hIgG1, Kappa; also called BSN 3C6 (WO2019238882)
B1: the “RGA Efficacy (%)” value with cynomolgus IL-11 [1] amounted to 52.4%; in the test with human IL-11 [2], 76.7%; with murine IL-11 [3], 90.9%; with rat IL-11 [4] it was 81.3%. Moreover, the “RGA IC50” value is 3.7 nM in the test with human IL-11 [2], 8.1 nM in the test with murine IL-11 [3] and 8.8 nM with rat IL-11 [4]. In the test with cynomolgus IL-11 [5], the binding result is “no binding (tested: IL-11 up to 200 nM)”. Besides, the Kd with human IL-11 [6] was 1.4 nM; in the test with murine IL-11 [7], 1.8 nM; in the test with rat IL-11 [8] it was 3.2 nM. The “Efficacy (%)” value came to 97.2% with human IL-11 [9] and 98.4% with murine IL-11 [10]. Further, the IC50 with human IL-11 [9] amounted to 2.9 nM; in the test with murine IL-11 [10], 3.3 nM.

B2: TPP-20489 (bispecific antibody, IgG1)
chain 1: not shown
chain 2: EVQLLESGGGLVQPGGSLRLSCAASGFTFSHYDMNWLRQAPGKGLEWVGVISYDGSNKFYADFVKGRFTISRDNSKNTLYLQMNSLRAEDTAVYYCARTPGSHFDYWGQGTLVTVSSGGGGSGGGGSGGGGSQSVLTQPPSASGTPGQRVTISCSGSSSNIGNNAVNWYQQLPGTAPKLLIYYDDLLPSGVPDRFSGSKSGTSASLAISGLRSEDEADYYCSAWDDSLNGVVFGGGTKLTVLGGGGSGGGGSGGGGSGVECPPCPAPELLGGPSVFLFPPKPKDTLMISRTPEVTCVVVDVSHEDPEVKFNWYVDGVEVHNAKTKPREEQYNSTYRVVSVLTVLHQDWLNGKEYKCKVSNKALPAPIEKTISKAKGQPREPQVCTLPPSRDELTKNQVSLSCAVKGFYPSDIAVEWESNGQPENNYKTTPPVLDSDGSFFLVSKLTVDKSRWQQGNVFSCSVMHEALHNHYTQKSLSLSPG
notes: scFv-kih-hIgG1
In the case of B2, the “Efficacy (%)” value amounted to 94% with murine IL-11 [11] and 105% with human IL-11 [13]. The IC50 in the test with murine IL-11 [11] was 1.81 nM; with murine IL-11 [12], 35 nM; in the test with human IL-11 [13], 6.28 nM. For the same molecule, the dissociation constant (Kd) with cynomolgus IL-11 [14] came out at 0.025 nM; with murine IL-11 [15], 5 pM; with rat IL-11 [16] it was 2.6 pM; with human IL-11 [17], 0.011 nM. Moreover, in the test with human IL2Ra, the “Ratio IL-2Ra Binding Signal Antibody/Isotype Control” value was found to be 852 ratio. Further, the “Efficacy (%), Stat3 reporter gene assay” value with murine IL-11 [18] was found to be 93.9%; in the test with human IL-11 [19], 102%. Moreover, the entries for the “IC50, Stat3 reporter gene assay” value with murine IL-11 [18] and with human IL-11 [19] were 1 nM and 310 pM, respectively.

The term Kd denotes the constant that tells how readily two partners part at equilibrium. Low readings indicate tighter binding, high ones weaker binding. The IC50 is the concentration at which inhibition is half-maximal.
